# Data from PMC5534435, “The Amyloid Precursor Protein Is a Conserved Receptor for Slit to Mediate Axon Guidance” (eNeuro, 2017).
# B1: FL Slit2 fused N terminally to the human alkaline phosphatase sequence (ligand, UniProt O94813 31-1529, looked up)
# chain: QCSCSGSTVDCHGLALRSVPRNIPRNTERLDLNGNNITRITKTDFAGLRHLRVLQLMENKISTIERGAFQDLKELERLRLNRNHLQLFPELLFLGTAKLYRLDLSENQIQAIPRKAFRGAVDIKNLQLDYNQISCIEDGAFRALRDLEVLTLNNNNITRLSVASFNHMPKLRTFRLHSNNLYCDCHLAWLSDWLRQRPRVGLYTQCMGPSHLRGHNVAEVQKREFVCSGHQSFMAPSCSVLHCPAACTCSNNIVDCRGKGLTEIPTNLPETITEIRLEQNTIKVIPPGAFSPYKKLRRIDLSNNQISELAPDAFQGLRSLNSLVLYGNKITELPKSLFEGLFSLQLLLLNANKINCLRVDAFQDLHNLNLLSLYDNKLQTIAKGTFSPLRAIQTMHLAQNPFICDCHLKWLADYLHTNPIETSGARCTSPRRLANKRIGQIKSKKFRCSAKEQYFIPGTEDYRSKLSGDCFADLACPEKCRCEGTTVDCSNQKLNKIPEHIPQYTAELRLNNNEFTVLEATGIFKKLPQLRKINFSNNKITDIEEGAFEGASGVNEILLTSNRLENVQHKMFKGLESLKTLMLRSNRITCVGNDSFIGLSSVRLLSLYDNQITTVAPGAFDTLHSLSTLNLLANPFNCNCYLAWLGEWLRKKRIVTGNPRCQKPYFLKEIPIQDVAIQDFTCDDGNDDNSCSPLSRCPTECTCLDTVVRCSNKGLKVLPKGIPRDVTELYLDGNQFTLVPKELSNYKHLTLIDLSNNRISTLSNQSFSNMTQLLTLILSYNRLRCIPPRTFDGLKSLRLLSLHGNDISVVPEGAFNDLSALSHLAIGANPLYCDCNMQWLSDWVKSEYKEPGIARCAGPGEMADKLLLTTPSKKFTCQGPVDVNILAKCNPCLSNPCKNDGTCNSDPVDFYRCTCPYGFKGQDCDVPIHACISNPCKHGGTCHLKEGEEDGFWCICADGFEGENCEVNVDDCEDNDCENNSTCVDGINNYTCLCPPEYTGELCEEKLDFCAQDLNPCQHDSKCILTPKGFKCDCTPGYVGEHCDIDFDDCQDNKCKNGAHCTDAVNGYTCICPEGYSGLFCEFSPPMVLPRTSPCDNFDCQNGAQCIVRINEPICQCLPGYQGEKCEKLVSVNFINKESYLQIPSAKVRPQTNITLQIATDEDSGILLYKGDKDHIAVELYRGRVRASYDTGSHPASAIYSVETINDGNFHIVELLALDQSLSLSVDGGNPKIITNLSKQSTLNFDSPLYVGGMPGKSNVASLRQAPGQNGTSFHGCIRNLYINSELQDFQKVPMQTGILPGCEPCHKKVCAHGTCQPSSQAGFTCECQEGWMGPLCDQRTNDPCLGNKCVHGTCLPINAFSYSCKCLEGHGGVLCDEEEDLFNPCQAIKCKHGKCRLSGLGQPYCECSSGYTGDSCDREISCRGERIRDYYQKQQGYAACQTTKKVSRLECRGGCAGGQCCGPLRSKRRKYSFECTDGSSFVDEVEKVVKCGCTRCVS
# notes: Slit2, full length, put in place of Netrin 5 in the vector Ntn5.a-AP-His (Addgene); also called AP-tagged Slit2; alkaline phosphatase (AP)-tagged Slit2; source: HEK293T, transfected, in supernatant; not shown: alkaline phosphatase (human), C-terminal, kept
# Molecular target: T1, Rat Robo1 tagged with the hemagglutinin (Robo1-HA) (rat, UniProt O55005 26-1651)
# T1 construct: Roundabout homolog 1 (Robo1), rat; The sentence with the Kd calls it Robo2, the methods name only rat Robo1-HA; also called Robo-HA; HA-Robo; source: HEK293, transfected
# Test: binding of alkaline phosphatase-tagged ligand to transfected cells; HEK293 cells transfected with FL APP or HA-Robo incubated with serial dilutions of supernatants with AP-tagged Slit2 and 1 μg/ml heparin, 2 h at 37°C; AP activity in cell lysates; Hill equation, Scatchard plot
# Conditions: partners not purified
# T1 sequence (O55005 26-1651): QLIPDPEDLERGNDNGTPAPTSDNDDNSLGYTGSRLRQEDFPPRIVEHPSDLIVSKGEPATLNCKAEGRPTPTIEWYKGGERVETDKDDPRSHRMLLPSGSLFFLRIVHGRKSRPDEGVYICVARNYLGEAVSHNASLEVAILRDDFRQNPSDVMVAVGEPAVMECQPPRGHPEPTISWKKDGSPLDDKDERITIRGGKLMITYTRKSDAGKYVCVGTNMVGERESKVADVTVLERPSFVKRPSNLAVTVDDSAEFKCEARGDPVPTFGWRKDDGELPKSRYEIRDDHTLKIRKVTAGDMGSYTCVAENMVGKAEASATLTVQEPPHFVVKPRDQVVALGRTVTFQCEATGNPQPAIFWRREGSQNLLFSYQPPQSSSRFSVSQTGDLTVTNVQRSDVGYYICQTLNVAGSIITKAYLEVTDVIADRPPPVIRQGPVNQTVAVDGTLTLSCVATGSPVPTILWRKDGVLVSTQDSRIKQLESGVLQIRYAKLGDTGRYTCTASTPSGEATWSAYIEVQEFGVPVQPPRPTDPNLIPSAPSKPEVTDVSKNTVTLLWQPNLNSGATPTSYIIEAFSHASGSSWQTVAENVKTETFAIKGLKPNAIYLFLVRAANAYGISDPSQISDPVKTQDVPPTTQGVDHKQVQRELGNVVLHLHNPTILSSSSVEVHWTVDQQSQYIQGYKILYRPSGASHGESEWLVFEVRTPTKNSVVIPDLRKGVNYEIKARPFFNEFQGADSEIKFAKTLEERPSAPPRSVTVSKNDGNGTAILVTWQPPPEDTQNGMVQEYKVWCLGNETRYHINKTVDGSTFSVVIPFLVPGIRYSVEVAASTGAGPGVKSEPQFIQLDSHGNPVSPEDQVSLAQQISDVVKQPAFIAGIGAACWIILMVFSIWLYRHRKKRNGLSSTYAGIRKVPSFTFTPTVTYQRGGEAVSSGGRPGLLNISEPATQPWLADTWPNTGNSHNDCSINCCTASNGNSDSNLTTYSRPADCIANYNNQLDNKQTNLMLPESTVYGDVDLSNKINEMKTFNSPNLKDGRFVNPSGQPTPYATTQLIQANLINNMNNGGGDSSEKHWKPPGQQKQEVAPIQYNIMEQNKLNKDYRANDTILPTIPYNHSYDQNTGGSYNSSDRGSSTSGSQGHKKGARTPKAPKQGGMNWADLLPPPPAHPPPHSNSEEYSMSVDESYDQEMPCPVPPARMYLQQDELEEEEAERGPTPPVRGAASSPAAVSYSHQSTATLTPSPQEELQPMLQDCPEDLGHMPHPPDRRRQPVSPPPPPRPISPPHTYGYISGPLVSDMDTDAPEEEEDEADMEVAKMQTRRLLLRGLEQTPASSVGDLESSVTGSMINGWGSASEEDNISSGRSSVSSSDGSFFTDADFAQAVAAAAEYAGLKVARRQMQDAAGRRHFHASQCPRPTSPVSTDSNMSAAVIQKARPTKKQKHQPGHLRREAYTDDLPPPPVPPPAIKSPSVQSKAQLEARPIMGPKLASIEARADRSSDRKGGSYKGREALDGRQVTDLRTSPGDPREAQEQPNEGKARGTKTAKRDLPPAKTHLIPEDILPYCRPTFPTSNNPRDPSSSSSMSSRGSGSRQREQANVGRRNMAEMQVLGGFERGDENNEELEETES
binder,measurement,value
B1,Kd,19.6 nM
